# According to the nanobody polyreactivity screen of Harvey et al. (2022):
# Test: yeast display, Sf9 membrane polyspecificity reagent, FACS + sequencing; frameworks hold sequencing errors
# Procedure, shortened: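 After 36–48 hours of galactose induction, yeast (Saccharomyces cerevisiae BJ5465) displaying a synthetic nanobody library were stained at 4 °C for 1 hour with 10% biotinylated, detergent-solubilized Sf9 membrane reagent. Streptavidin microbeads enriched the stained cells before FACS sorting into low and high (top ~1%) gates on anti-HA and streptavidin fluorescence. Each clone's polyreactivity label reflects its gate of origin.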
row,Sequence,polyreactivity (PSR sort gate)
1,QVQLVESGGGLVQAGGSLRLSCAASGFTFSKYAMGWYRQAPGKERELVAAITRRGSSTYYADSVKGRFTISRDNAKNTVYLQMNSLKPEDTAVYYCNAPRPNGYLGEDNYWGQGTQVTVSS,high polyreactivity
2,QVQLVESGGGLVQSGGSIRLSCAASGSTFDHYTMGWYRQAPGKERELVAAINRIGDSTYYADSVKGRFTISRDNAKNTVYLQMNSLKPEDTAVYDCAARHVPRFNKYGYWGQGTQVNVSS,high polyreactivity
3,QVQLVESGGGLVQAGGSLRLSCAASGLIFNVNAMGWYRQAPRKERELVAAITGGGGSTYYADSVKGRFTISRDNAKNTVYLQMNSLKPEDTAVYYCAATTGLYTRYGDWGQVTQVTVSS,high polyreactivity
4,QVQLVESGGGLVQAGGSLRLICAASGSNFWGNTMGWYRQAPGKERELVATISRRGGSTNYADSVKGRFTISRDNAKNTVYLQMNSLKPEDTAVYYCAAVTIYRSYRGNPYYYWGQGTQVTVSS,high polyreactivity
5,QVQLVESGGGLVQAGGSLRLSCAASGSTFQYNAKGWYRQAPGKERELVAAISSGGSTYYADSVKGRFTISRDNAKNTVYLQMNSLKPEDTAVYYCNALSRRQNWAGEVYYWGQGTQVTVSS,high polyreactivity
6,QVQLVESGGGLVQAGGSLRLSCAASGSIFEWYAMGWYRQAPGKERELVAAISSSGTSTYYADSVKGRFTISRDNAKNTVYLQMNSLKPEDTAVYYCNTDLSRLSQHDYWGQGTQVTVSS,low polyreactivity
7,QVQLVESGGGLVQAGGSLRLSCAASGSIFSGNAMGWYRQAPGKERELVAAISRSGTSTYYADSVKGRFTISRDNAKNTVYFQMNSLKPEDTAVYYCNARSYYTLRSDFYYWGQGTQVTVSS,high polyreactivity
8,QVQLVESGGGLVQAGGSLRLSCAASGSIFGDNAMGWYRQAPGKERELVAAISTRGGRTYYADSVKGRFTISRDNAKNTVYLQMNSLKPEDSAVYYCATSGGRPYKYEYWGQGTQVTVSS,high polyreactivity
9,QVQLVESGGGLVQAGGSLRLSCAASGYIFQVNAMGWYRQAPGKERELVASISCGGSTNYADSVKGRFTISRDNAKNTVYLQMNSLKPEDTAVYYCAAELGYPYLQYVYWSQYLYDYWGQGTQVTVSS,low polyreactivity
10,QVQLVESGGGLVQAGGSLRLSCAASGSIFRWYAMGWYRQAPGKERELVAAITWSASRTYYADSVKGRFTISRDTAKNTVYLQMNSLKPEDTAVYYCAADHDGPYAGYDSWRQGTQVTVSS,low polyreactivity
11,QVQLVESGRGLVQAGGSLRLSCAASGRIFRYYTMGWYRQAPGKERELVATISWNGSNTYYADSVKGRFTISRDNAKNTVYLQMNSLKPEDTAVYYCAAGVLPGLYNGARLFDYWGQGTQVTVSS,low polyreactivity
12,QVQLVESGGGLVQAGGSLRLSCAASGSILIVYAMGWYRQAPGKERELVAAITRGGRTNYADSVKGRFTISRDNAKNTVYLQMNSLKPEDTAVYYCAARVLPANVKPYNYWGQGTQVTVSS,high polyreactivity
13,QVQLVESGGGLVQAGGSLRLSCAASGRTFPVYAMGWYRQAPGKEREFVAAISYRTGSTYYADSVKGRFTISRDHAKNTVYLQMNSLKPEDTAVYYCAARVSWYYTFYSWGQGTQVTVSS,high polyreactivity
14,QVHLVESGGGIVQAGGSLRLSCAASGSIFKYYPMGWYRQAAGKERELVAVISSGGRTYYADSVKGRFTISRDNAKNTVYLQMNSLKPEDTAVYYCAVYRTFRYRYDSWGQGTQVTVSS,high polyreactivity
15,QVQLVESGGGLVQAGGSLRLSCAASGFTFNYYAMGLYRQAPGKERELVARITSGGSTYYADSVKGRFTISRDNAKNTVYLQMNSLKPEDTAVYYCNVDVSVEVAYWGQGTQVTVSS,low polyreactivity
16,QVQLVESGGGLVQAGGSLRLSCAASGFTFIRYARGWYRPAPGKERELVAAIRGTGTSTYYADSVKGRFTISRDNAKNTVYLQMNSLKPEDTAVDYCNTVAGRSPYTRYDYWGQGTQVTVSS,low polyreactivity

row,Sequence,polyreactivity (PSR sort gate)
1,QVQLVESGGGLVQAGGSLRLSCSASGSTFPPNAMGWYRQAPGKERELVAVISYSDGSTYYADSVKGRFTISRDNAKNTVYLQMNSLKPEDTAVYYCAAYSGYGGVSMYYWGQGTQVTVSS,low polyreactivity
2,QVQLVESGGCLVQAGGTLRLSCAASGFTIRSNAMGWYRQAPGKERELVADISHGGGTSYADSVKGRFTISRDNAKNTVYLQRNSLKPEDTAVYYCAADLSTYVNYWWEYYYWGQGSQVTVSS,low polyreactivity
3,QVQVVESGGGLVQAGGSLRLSCAASGFIFRRYAMGWYRQAPGKEMELVAAINYSGGSTYYADSVKGRFTISRDNEKNTVYLQMKSLKPEDNAVYYCNAYGLRYYEYDYWGQGTQVTVSS,low polyreactivity
4,QVQLVESRGGLVQAGGSLRLSFAASGSTFIKNAMGWYRQAPGKEWELVAAITSGGSRSYADSVKGRFTISRDNAKNTVYLQMNSLKPEDTAVYYCATDHDIGYNFYRYDYWGQGTQVTVSS,low polyreactivity
5,QVQLVESVGGLVQAGGSLRLSCAASGFIFAFYAMGWYRQAPGKESELVAAIRTGGSTNYADSVKGRFTISRDNAKNTVYLQMNSLKPEDTAVYYCAAYGRGGYWRWERDYWGLGTQVTVSS,high polyreactivity
6,QVQLVESGGGLVQAGGSLRLSCAASGRTFFPNAMGWSRQAPGKERELVASITSRGGGTYYADSVKGRFTISRDNAKKTVYLQMNSLKPEDTAVYYCAADRYYFSPGYNWWSEGYDYWGQGTQVTVSS,low polyreactivity
7,QVQLVESRGGLVQAGGSLRLSCAASVGTFGLNAMGWYSQAPGKERELVADIDGRGGSTYYADSVKGRFTISRDNAKNTFDLQMNSLKPEDTAVYYSAARAPFLSVPSELDYWGQGTQVTVSS,low polyreactivity
8,QVQLVESGGGLVQAGGRLRLSCAASGRIFAYYAMGWYRQAPGKERELVAGISQRGSRTYYADSVKGRFTNSRDNAKNTVYLQMNSLTPEDTAVYYCAARDRRTVTMDYWGQGTQVTVSS,high polyreactivity
9,QVQLVESGGGLVQSGGSLRLSCAASGFTFSRYAMGWYRQAPGKERELVAAINWSGGSTYYADSVKGRFTISRDNAKNTVYLQMNSLKPEDTAVYSCAKPAGGSGYDSWGQGTQVTVSS,high polyreactivity
10,QVQLVESGGGLVQAGGSLRLSCAASGRIFPSYAMGWYRQAPGKERELVAAISSSGGRTYYADSVKGRFTISRDNAKNTVYLQMNSLKPEDTAVYYCAARWVQYGVRYDYWGQGTQVTVSS,high polyreactivity
11,QVQLVESGGGLVQAGGSLRLSCAASGFTFFSKYVMGWYSQAPRKERELVAAISSSGGTTYYADSVKGRFTISRDNAKNTVYLQMNSLKPEDTAVYYCAARLVSSTFQYNMYYWGQGTQVTVSS,high polyreactivity
12,QVQLVESGGGLVQAGGSLRLSCAASGSTFKYYAMVWYRQAPGKERELVAAISRSGGRTYYADSVKGRFTISRDNAKNTVYLQMNSLKPEDTAVSLCNAVVARVNVRGTPAFDYWGQGTQVTVSS,high polyreactivity
13,QVQLVESGGGLVQAGGSLRLSSAASGRILPVNTMGWYRQAPGKERELVAVITRSGGRTYYADSVKGRFTISRDYAKNTVYLQMNSLKPEDTAVYYCAADVGFRWYRYTAGPLEYDYWGQGTQVTVSS,high polyreactivity
14,QVQLVESGGGLVEAGGSLRLSCAASGRIFKYYAMGWYRQAPGKERELVAAISRGGSTYYADSVKGRFTISRDNAKNTVYLQMNSLKPEDTAVYFCAAVNGWRRVLRFDYWGQGTQVTVSS,high polyreactivity
15,QVQLVESGGGLVQAGGSLRLSCAASVRTFWYNAMGWYRQAPGKERELVAVISSGAITYYADSVKGRFTISRDNAKNTVYLQMNSLKPEDTAVYYCNAQRRGTYYWGQGTQVTVSS,high polyreactivity
